Positions of bridges follow the written chain, without caps; N, C: chain ends. Non-standard residues stand in square brackets, D forms with d. R8 = C=CCCCCCC[C@@](C)(N)C(=O)O; S5 = C=CCCC[C@](C)(N)C(=O)O
Columns and labels:
Test in all cases: Ki table, method not stated
BCL-2 = BCL-2 (UniProt P10415 1-217, limits assumed)
BCL-XL = BCL-XL (UniProt Q07817 1-209)
MCL-1 = biological target: T1, MCL-1 (UniProt Q07820 172-327, limits assumed)
T1 construct: also called Myeloid cell leukemia 1
T1 sequence (Q07820 172-327 limits assumed): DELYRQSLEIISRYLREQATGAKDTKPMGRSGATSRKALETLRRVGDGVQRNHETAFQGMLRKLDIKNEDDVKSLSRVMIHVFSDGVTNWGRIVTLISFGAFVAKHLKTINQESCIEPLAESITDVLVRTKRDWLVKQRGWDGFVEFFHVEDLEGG

BCL-XL, sequence (Q07817 1-209): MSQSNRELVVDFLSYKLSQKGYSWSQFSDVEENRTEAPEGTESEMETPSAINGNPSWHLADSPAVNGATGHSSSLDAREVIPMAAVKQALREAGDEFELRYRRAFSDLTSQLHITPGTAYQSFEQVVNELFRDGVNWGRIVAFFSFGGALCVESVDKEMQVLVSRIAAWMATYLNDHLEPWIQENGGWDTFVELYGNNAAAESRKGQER
BCL-2, sequence (P10415 1-217 limits assumed): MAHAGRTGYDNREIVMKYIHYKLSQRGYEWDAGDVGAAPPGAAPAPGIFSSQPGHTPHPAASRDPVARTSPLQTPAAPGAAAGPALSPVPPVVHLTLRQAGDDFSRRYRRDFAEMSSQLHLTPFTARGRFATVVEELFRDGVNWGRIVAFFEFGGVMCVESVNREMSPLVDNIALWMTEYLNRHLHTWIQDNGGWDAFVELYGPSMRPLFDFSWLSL

B1: SEQ ID NO: 1651 (peptide)
peptide: Ac-IWIAAALR[R8]IGDEFN[S5]YYA-NH2
modifications: staple 9-16
SMILES: CC[C@H](C)[C@H](NC(C)=O)C(=O)N[C@@H](Cc1c[nH]c2ccccc12)C(=O)N[C@H](C(=O)N[C@@H](C)C(=O)N[C@@H](C)C(=O)N[C@@H](C)C(=O)N[C@@H](CC(C)C)C(=O)N[C@@H](CCCNC(=N)N)C(=O)N[C@]1(C)CCCCCCC=CCCC[C@@](C)(C(=O)N[C@@H](Cc2ccc(O)cc2)C(=O)N[C@@H](Cc2ccc(O)cc2)C(=O)N[C@@H](C)C(N)=O)NC(=O)[C@H](CC(N)=O)NC(=O)[C@H](Cc2ccccc2)NC(=O)[C@H](CCC(=O)O)NC(=O)[C@H](CC(=O)O)NC(=O)CNC(=O)[C@H]([C@@H](C)CC)NC1=O)[C@@H](C)CC
Work on B1 yielded a Ki (BCL-2) of 6 nM, a Ki (BCL-XL) of 1 nM and a Ki (MCL-1) of 1 nM.

B2: SEQ ID NO: 1652 (peptide)
peptide: Ac-IWIAAALR[R8]IGDQFN[S5]YYA-NH2
modifications: staple 9-16
SMILES: CC[C@H](C)[C@H](NC(C)=O)C(=O)N[C@@H](Cc1c[nH]c2ccccc12)C(=O)N[C@H](C(=O)N[C@@H](C)C(=O)N[C@@H](C)C(=O)N[C@@H](C)C(=O)N[C@@H](CC(C)C)C(=O)N[C@@H](CCCNC(=N)N)C(=O)N[C@]1(C)CCCCCCC=CCCC[C@@](C)(C(=O)N[C@@H](Cc2ccc(O)cc2)C(=O)N[C@@H](Cc2ccc(O)cc2)C(=O)N[C@@H](C)C(N)=O)NC(=O)[C@H](CC(N)=O)NC(=O)[C@H](Cc2ccccc2)NC(=O)[C@H](CCC(N)=O)NC(=O)[C@H](CC(=O)O)NC(=O)CNC(=O)[C@H]([C@@H](C)CC)NC1=O)[C@@H](C)CC
With B2 the Ki (BCL-2) was 22 nM, the Ki (BCL-XL) was 4 nM and the Ki (MCL-1) was 6 nM.

B3: SEQ ID NO: 1660 (peptide)
peptide: Ac-IWIAQALQ[R8]IGDQFN[S5]YYA-NH2
modifications: staple 9-16
SMILES: CC[C@H](C)[C@H](NC(C)=O)C(=O)N[C@@H](Cc1c[nH]c2ccccc12)C(=O)N[C@H](C(=O)N[C@@H](C)C(=O)N[C@@H](CCC(N)=O)C(=O)N[C@@H](C)C(=O)N[C@@H](CC(C)C)C(=O)N[C@@H](CCC(N)=O)C(=O)N[C@]1(C)CCCCCCC=CCCC[C@@](C)(C(=O)N[C@@H](Cc2ccc(O)cc2)C(=O)N[C@@H](Cc2ccc(O)cc2)C(=O)N[C@@H](C)C(N)=O)NC(=O)[C@H](CC(N)=O)NC(=O)[C@H](Cc2ccccc2)NC(=O)[C@H](CCC(N)=O)NC(=O)[C@H](CC(=O)O)NC(=O)CNC(=O)[C@H]([C@@H](C)CC)NC1=O)[C@@H](C)CC
B3 showed a Ki (BCL-2) of 27.5 nM, a Ki (BCL-XL) of 6.3 nM and a Ki (MCL-1) of 14.8 nM.

B4: SEQ ID NO: 1653 (peptide)
peptide: Ac-IWIAAALR[R8]IGDAFN[S5]YYA-NH2
modifications: staple 9-16
SMILES: CC[C@H](C)[C@H](NC(C)=O)C(=O)N[C@@H](Cc1c[nH]c2ccccc12)C(=O)N[C@H](C(=O)N[C@@H](C)C(=O)N[C@@H](C)C(=O)N[C@@H](C)C(=O)N[C@@H](CC(C)C)C(=O)N[C@@H](CCCNC(=N)N)C(=O)N[C@]1(C)CCCCCCC=CCCC[C@@](C)(C(=O)N[C@@H](Cc2ccc(O)cc2)C(=O)N[C@@H](Cc2ccc(O)cc2)C(=O)N[C@@H](C)C(N)=O)NC(=O)[C@H](CC(N)=O)NC(=O)[C@H](Cc2ccccc2)NC(=O)[C@H](C)NC(=O)[C@H](CC(=O)O)NC(=O)CNC(=O)[C@H]([C@@H](C)CC)NC1=O)[C@@H](C)CC
B4 showed a Ki (BCL-2) of 65.4 nM, a Ki (BCL-XL) of 25.6 nM and a Ki (MCL-1) of 6.7 nM.

B5: SEQ ID NO: 1662 (peptide)
peptide: Ac-IWIAQALR[R8]IGDAIN[S5]YYA-NH2
modifications: staple 9-16
SMILES: CC[C@H](C)[C@H](NC(C)=O)C(=O)N[C@@H](Cc1c[nH]c2ccccc12)C(=O)N[C@H](C(=O)N[C@@H](C)C(=O)N[C@@H](CCC(N)=O)C(=O)N[C@@H](C)C(=O)N[C@@H](CC(C)C)C(=O)N[C@@H](CCCNC(=N)N)C(=O)N[C@]1(C)CCCCCCC=CCCC[C@@](C)(C(=O)N[C@@H](Cc2ccc(O)cc2)C(=O)N[C@@H](Cc2ccc(O)cc2)C(=O)N[C@@H](C)C(N)=O)NC(=O)[C@H](CC(N)=O)NC(=O)[C@H]([C@@H](C)CC)NC(=O)[C@H](C)NC(=O)[C@H](CC(=O)O)NC(=O)CNC(=O)[C@H]([C@@H](C)CC)NC1=O)[C@@H](C)CC
Binder B5 has a Ki (BCL-2) of 113 nM, a Ki (BCL-XL) of 14.1 nM and a Ki (MCL-1) of 3.4 nM.

B6: SEQ ID NO: 1654 (peptide)
peptide: Ac-IWIAQALR[R8]IGDAFA[S5]YYA-NH2
modifications: staple 9-16
SMILES: CC[C@H](C)[C@H](NC(C)=O)C(=O)N[C@@H](Cc1c[nH]c2ccccc12)C(=O)N[C@H](C(=O)N[C@@H](C)C(=O)N[C@@H](CCC(N)=O)C(=O)N[C@@H](C)C(=O)N[C@@H](CC(C)C)C(=O)N[C@@H](CCCNC(=N)N)C(=O)N[C@]1(C)CCCCCCC=CCCC[C@@](C)(C(=O)N[C@@H](Cc2ccc(O)cc2)C(=O)N[C@@H](Cc2ccc(O)cc2)C(=O)N[C@@H](C)C(N)=O)NC(=O)[C@H](C)NC(=O)[C@H](Cc2ccccc2)NC(=O)[C@H](C)NC(=O)[C@H](CC(=O)O)NC(=O)CNC(=O)[C@H]([C@@H](C)CC)NC1=O)[C@@H](C)CC
Work on B6 yielded a Ki (BCL-2) of 115 nM, a Ki (BCL-XL) of 55.7 nM and a Ki (MCL-1) of 7.4 nM.

B7: SEQ ID NO: 1659 (peptide)
peptide: Ac-IWIAQALQ[R8]IGDAFN[S5]YYA-NH2
modifications: staple 9-16
SMILES: CC[C@H](C)[C@H](NC(C)=O)C(=O)N[C@@H](Cc1c[nH]c2ccccc12)C(=O)N[C@H](C(=O)N[C@@H](C)C(=O)N[C@@H](CCC(N)=O)C(=O)N[C@@H](C)C(=O)N[C@@H](CC(C)C)C(=O)N[C@@H](CCC(N)=O)C(=O)N[C@]1(C)CCCCCCC=CCCC[C@@](C)(C(=O)N[C@@H](Cc2ccc(O)cc2)C(=O)N[C@@H](Cc2ccc(O)cc2)C(=O)N[C@@H](C)C(N)=O)NC(=O)[C@H](CC(N)=O)NC(=O)[C@H](Cc2ccccc2)NC(=O)[C@H](C)NC(=O)[C@H](CC(=O)O)NC(=O)CNC(=O)[C@H]([C@@H](C)CC)NC1=O)[C@@H](C)CC
Work on B7 yielded a Ki (BCL-2) of 365 nM, a Ki (BCL-XL) of 325 nM and a Ki (MCL-1) of 76.2 nM.

B8: SEQ ID NO: 1661 (peptide)
peptide: Ac-IWIAQALR[R8]IGDAAN[S5]YYA-NH2
modifications: staple 9-16
SMILES: CC[C@H](C)[C@H](NC(C)=O)C(=O)N[C@@H](Cc1c[nH]c2ccccc12)C(=O)N[C@H](C(=O)N[C@@H](C)C(=O)N[C@@H](CCC(N)=O)C(=O)N[C@@H](C)C(=O)N[C@@H](CC(C)C)C(=O)N[C@@H](CCCNC(=N)N)C(=O)N[C@]1(C)CCCCCCC=CCCC[C@@](C)(C(=O)N[C@@H](Cc2ccc(O)cc2)C(=O)N[C@@H](Cc2ccc(O)cc2)C(=O)N[C@@H](C)C(N)=O)NC(=O)[C@H](CC(N)=O)NC(=O)[C@H](C)NC(=O)[C@H](C)NC(=O)[C@H](CC(=O)O)NC(=O)CNC(=O)[C@H]([C@@H](C)CC)NC1=O)[C@@H](C)CC
B8 showed a Ki (BCL-2) of 140 nM, a Ki (BCL-XL) of 402 nM and a Ki (MCL-1) of 7.5 nM.
